Reference: the supplement of paper PMC10567573

B1: TRAF3IP2 (parent)
chain: YGHDYPRAAYQQVIQPALPGQPLP

Variants of: B1
Assay: protein stability index of a GFP-peptide fusion (GPS, HEK-293T) (PSI 1-6); higher = more stable
Conditions: c terminus: a fixed tail appended
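Note: lentivirally expressed fusions sorted by FACS into six bins by GFP to DsRed ratio, PSI derived from sequencing read proportions per bin multiplied by bin number.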

Protein stability index, by site and new letter:
P24: F 1.9; C 2; E 1.42; A 2.67; D 2.45
P6: T 2.73; Q 2.27; V 1.56; Y 2.96; S 2.6; M 1.79; R 1.99; W 1.48; N 2.55
Q21: I 2.79; M 2.67; L 2.02; N 2.08; V 2.44; P 2.95; D 2.58; S 1.99; G 1.58; F 1.65; E 2.2; T 2.1; W 1.84; A 2.12; Y 1.88; C 2.74; K 2.21; R 2.24; H 1.37
I14: C 2.49; S 2.09; G 1.92; E 2; W 2.33; R 1.74; D 1.22; K 2.31; F 2.01; Q 1.75; N 1.92; A 1.5; P 2.14; L 1.77; Y 2.52; H 1.88; T 1.86; V 1.67; M 1.49
G20: M 2.27; K 2.23; E 2.52; Y 2.66; D 2.78; L 1.38; V 1.69; S 1.6; R 1.52; W 1.49; C 2.04; H 2.33; F 1.8; I 1.58; Q 2.04; N 2.68
Y10: P 2.28; M 1.65; N 1.85; I 2.02; C 2.39; W 1.75; A 1.79; T 1.97; E 2.17; Q 2.07; G 1.91; S 1.75; K 2.36; F 2.33; D 1.97; R 1.7; V 2.13; H 2.52; L 2
P22: I 1.82; W 1.26; S 1.8; C 1.62; N 2.11; M 1.82; R 1.79; Q 2.24; E 1.71; L 1.39; G 3.86; H 1.71; Y 1.75; A 1.93; D 1.34; F 2.56; T 2.33; V 1.8; K 2.17
V13: H 2.02; A 2.17; N 2.09; P 2.52; Y 2.03; L 2.26; G 2.45; F 2.38; D 2.64; K 1.75; R 1.93; I 1.98; T 1.83; E 1.74; S 2.6; M 1.95; C 2.04; W 2.4; Q 2.25
A17: E 2; I 2.37; V 2.41; R 1.74; H 2.08; F 2.48; M 1.95; N 1.29; D 2.36; K 1.98; Y 1.83; C 2.32; W 1.92; L 3.12; S 2.43; T 2.62; Q 1.72; G 1.46; P 2.2
Q11: N 1.96; K 2.24; P 1.69; V 2.31; S 2.15; E 2.09; Y 2.52; C 3.05; F 3.98; A 2.75; T 3.14; D 2.05; G 1.79; R 1.59; L 3.77; I 2.94; M 1.65; H 2.48; W 1.94
R7: L 2.27; W 2.41; T 2.6; Q 2.56; A 2.46; S 2.65; P 2.41; C 2.44; V 2.56; D 3.34; M 2.27; K 2.18; Y 2.28; G 2.58; F 2.2; E 3.87; H 2.36; N 2.82; I 2.51
L18: E 2.06; G 2.01; F 2.59; N 2.25; W 2.01; D 2.17; C 1.86; Y 2.26; R 2.12; A 1.75; I 2.16; T 1.76; H 1.9; K 2.15; Q 2.24; V 1.65; P 1.82; S 1.6; M 1.9
P16: Y 2.81; A 1.94; D 2.22; Q 2.03; E 2.25; S 1.39; V 3.03; R 1.71; H 1.57; G 1.54; L 1.39; K 2.48; W 3.06; M 1.89; C 2.35; N 1.95; I 2.79; T 2.27; F 2.74
Q12: M 3.06; H 2.01; E 1.48; I 2.59; F 2.56; R 2.17; L 1.98; T 1.7; D 1.58; Y 2.61; V 3.04; P 3.46; A 1.96; N 1.65; W 2.41; C 3.07; K 2.37; S 2.13; G 2.79
A8: D 2.43; T 2.8; L 2.7; Y 2.24; V 2.59; W 2.64; I 2.57; N 2.3; Q 2.65; M 1.76; C 1.94; R 3.2; K 2.14; S 1.93; P 2.35; E 2.03; G 2.18; H 3.06; F 2.94
L23: P 1.54; T 1.99; C 2.21; V 2.5; R 2.28; I 2.24; K 2.2; N 2.09; E 1.8; Y 1.7; S 2.02; Q 2.24; M 2.59; A 2.62; F 2.15; G 1.77; H 1.59; D 2.18; W 1.72
P19: V 2.35; R 1.76; D 1.98; Y 1.87; C 2.24; K 2.14; E 2.42; T 2.65; L 2.5; H 1.65; S 2.45; N 2.07; G 1.9; F 2.44; I 2.54; M 2.34; A 1.99; W 1.73; Q 1.54
Q15: G 2.42; S 2.01; P 2.45; F 2.68; R 2.24; I 2.14; H 2.46; D 2.6; N 1.63; E 2.1; K 1.82; A 1.74; Y 2.53; L 2.23; V 1.68; M 1.59; T 1.62; C 2.22; W 3.01
A9: Q 2.2; Y 2.02; N 1.73; F 2.15; I 1.52; W 1.15; K 2.4; C 2.34; P 2.11; V 2.04; G 2.45; S 1.71; L 2.16; E 2.38; H 1.92; D 2.74; T 1.97; M 1.98; R 2.4
